Our source for the Kd values is paper PMC8928417.

For the assay, the target named is biotinylated histone H3 peptide trimethylated at lysine 27, H3K27me3 (21–44) (UniProt P68431). The assay is described as follows: peptide or protein array.

Broadly, the Kd is the constant that tells how readily two partners part at equilibrium. Low readings indicate tighter binding, high ones weaker binding. Turning to “polycomb-based transcription factor (PcTF), monovalent (from UniProt Q9HC52 1-62) (designed binder)”, the Kd fell in the range of 5.14 to 8.95 µM.
